In patent US20230079757A1, “METHODS AND MATERIALS FOR TREATING CANCER” (Mayo Foundation for Medical Education and Research, priority 2020, published 2023):

T1: STAT1 homodimer (human, UniProt P42224 2-750)
T1 construct: It was inferred from co-IP after IFNγ treatment and was not purified; also called STAT1/STAT1 homodimer; STAT1-STAT1 complex
T1 sequence (looked up): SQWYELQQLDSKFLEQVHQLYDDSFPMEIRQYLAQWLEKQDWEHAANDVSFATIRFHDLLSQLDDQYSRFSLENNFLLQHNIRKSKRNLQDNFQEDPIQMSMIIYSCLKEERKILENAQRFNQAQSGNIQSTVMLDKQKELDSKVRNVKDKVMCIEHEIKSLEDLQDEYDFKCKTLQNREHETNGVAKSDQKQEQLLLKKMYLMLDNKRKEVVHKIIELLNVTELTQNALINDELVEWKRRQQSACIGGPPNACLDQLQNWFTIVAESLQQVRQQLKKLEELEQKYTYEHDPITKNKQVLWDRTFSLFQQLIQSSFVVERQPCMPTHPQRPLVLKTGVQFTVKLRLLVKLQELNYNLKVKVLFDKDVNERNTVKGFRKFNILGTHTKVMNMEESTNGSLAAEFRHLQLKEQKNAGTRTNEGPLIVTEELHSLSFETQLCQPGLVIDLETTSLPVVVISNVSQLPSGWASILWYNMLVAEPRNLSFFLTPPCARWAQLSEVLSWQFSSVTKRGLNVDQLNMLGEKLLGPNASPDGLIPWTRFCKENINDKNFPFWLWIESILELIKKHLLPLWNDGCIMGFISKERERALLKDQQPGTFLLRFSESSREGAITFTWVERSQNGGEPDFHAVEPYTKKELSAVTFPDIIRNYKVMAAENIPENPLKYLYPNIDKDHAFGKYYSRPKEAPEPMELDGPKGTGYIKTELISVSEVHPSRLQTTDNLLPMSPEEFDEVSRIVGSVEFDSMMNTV

B1: FOXA1 (Forkhead box protein A1), wild type (other, human, UniProt P55317 1-472, looked up)
chain: MLGTVKMEGHETSDWNSYYADTQEAYSSVPVSNMNSGLGSMNSMNTYMTMNTMTTSGNMTPASFNMSYANPGLGAGLSPGAVAGMPGGSAGAMNSMTAAGVTAMGTALSPSGMGAMGAQQAASMNGLGPYAAAMNPCMSPMAYAPSNLGRSRAGGGGDAKTFKRSYPHAKPPYSYISLITMAIQQAPSKMLTLSEIYQWIMDLFPYYRQNQQRWQNSIRHSLSFNDCFVKVARSPDKPGKGSYWTLHPDSGNMFENGCYLRRQKRFKCEKQPGAGGGGGSGSGGSGAKGGPESRKDPSGASNPSADSPLHRGVHGKTGQLEGAPAPGPAASPQTLDHSGATATGGASELKTPASSTAPPISSGPGALASVPASHPAHGLAPHESQLHLKGDPHYSFNHPFSINNLMSSSEQQHKLDFKAYEQALQYSPYGSTLPASLPLGSASVTTRSPIEPSALEPAYYQGVYSRPVLNTS
notes: also called FOXA1-WT; WT FOXA1
B2: IRF9 (other, UniProt Q00978 1-393, looked up)
chain: MASGRARCTRKLRNWVVEQVESGQFPGVCWDDTAKTMFRIPWKHAGKQDFREDQDAAFFKAWAIFKGKYKEGDTGGPAVWKTRLRCALNKSSEFKEVPERGRMDVAEPYKVYQLLPPGIVSGQPGTQKVPSKRQHSSVSSERKEEEDAMQNCTLSPSVLQDSLNNEEEGASGGAVHSDIGSSSSSSSPEPQEVTDTTEAPFQGDQRSLEFLLPPEPDYSLLLTFIYNGRVVGEAQVQSLDCRLVAEPSGSESSMEQVLFPKPGPLEPTQRLLSQLERGILVASNPRGLFVQRLCPIPISWNAPQAPPGPGPHLLPSNECVELFRTAYFCRDLVRYFQGLGPPPKFQVTLNFWEESHGSSHTPQNLITVKMEQAFARYLLEQTPEQQAAILSLV
B3: STAT1 (other, human, UniProt P42224 2-750, looked up)
chain: T1 sequence (looked up)
notes: Cells were stimulated with IFN; also called endogenous STAT1

Key:
STAT2 [1] = target: T2, STAT2 (human, UniProt P52630 1-851); assay: co-IP of endogenous proteins in LNCaP cells (FIG. 8A)
T2 construct: also called endogenous STAT2
Method: (§1) For extraction of nuclear and cytoplasmic proteins from cells, NE-PER Nuclear and Cytoplasmic Extraction Kit (# 78835, Thermo Fisher Scientific) was used according to the manufacturer's instructions. IP buffer (50 mM Tris-HCl pH7.5, 150 mM NaCl, 1% NP40, 0.5% Sodium Deoxycholate) was used to extract whole cell lysate. P rotein A/G agarose (# 20421, Thermo Fisher Scientific) was used for immunoprecipitation of FOXA1 (# ab23738, Abcam) and Flag-tag (dilution 1:1000; # F1804, Sigma-Aldrich). Monoclonal anti-HA agarose (# A2095, Sigma-Aldrich) was used for HA-tag Co-IP. For glutathione-S-transferase (GST) pulldown assay, GST-tagged STAT2 fragment expressed at E. coli was purified by Glutathione Sepharose 4B beads (# 84-239, Genesee Scientific) and incubated with lysate from 293T cells expressing interested proteins, and GST pulldown assays were performed. For protein co-IP, samples eluted in IP butter were incubated with agarose beads and antibodies overnight at 4° C. and washed with 6 times with IP buffer in the following day. Samples were boiled for 10 minutes in 50 μl sample buffer (2% SDS, 10% glycerol, 10% β-mercaptoethanol, bromophenol blue and Tris-HCl, pH 6.8) and subjected to Western blotting.

STAT1 = target: B3; assay: co-IP of endogenous proteins, nuclear fraction (FIG. 8A, 9A, 9B)
Method: as §1

STAT1/STAT2 heterodimer [2] = target: T3, STAT1/STAT2 heterodimer (human, UniProt P42224 2-750; P52630 1-851); assay: co-IP of endogenous proteins after IFNα treatment (FIG. 8A, 9A, 9B)
T3 construct: It was inferred from co-IP after IFNα treatment and was not purified; also called STAT2/STAT1 heterodimer
Method: as §1

STAT1 homodimer = target: T1, STAT1 homodimer; assay: co-IP of endogenous proteins after IFNγ treatment (FIG. 8A, 9A, 9B)
Method: as §1

STAT1/STAT2 heterodimer [3] = target: T3, STAT1/STAT2 heterodimer; assay: co-IP in 293T cells treated with IFNα (FIG. 9D)
Method: as §1

STAT2 [4] = target: T2, STAT2; assay: co-IP in 293T cells treated with IFNα (FIG. 9D)
Method: as §1

[5] = target: the molecule itself; assay: co-IP in 293T cells treated with IFNγ (FIG. 9D)
Method: as §1

T2 sequence (P52630 whole entry): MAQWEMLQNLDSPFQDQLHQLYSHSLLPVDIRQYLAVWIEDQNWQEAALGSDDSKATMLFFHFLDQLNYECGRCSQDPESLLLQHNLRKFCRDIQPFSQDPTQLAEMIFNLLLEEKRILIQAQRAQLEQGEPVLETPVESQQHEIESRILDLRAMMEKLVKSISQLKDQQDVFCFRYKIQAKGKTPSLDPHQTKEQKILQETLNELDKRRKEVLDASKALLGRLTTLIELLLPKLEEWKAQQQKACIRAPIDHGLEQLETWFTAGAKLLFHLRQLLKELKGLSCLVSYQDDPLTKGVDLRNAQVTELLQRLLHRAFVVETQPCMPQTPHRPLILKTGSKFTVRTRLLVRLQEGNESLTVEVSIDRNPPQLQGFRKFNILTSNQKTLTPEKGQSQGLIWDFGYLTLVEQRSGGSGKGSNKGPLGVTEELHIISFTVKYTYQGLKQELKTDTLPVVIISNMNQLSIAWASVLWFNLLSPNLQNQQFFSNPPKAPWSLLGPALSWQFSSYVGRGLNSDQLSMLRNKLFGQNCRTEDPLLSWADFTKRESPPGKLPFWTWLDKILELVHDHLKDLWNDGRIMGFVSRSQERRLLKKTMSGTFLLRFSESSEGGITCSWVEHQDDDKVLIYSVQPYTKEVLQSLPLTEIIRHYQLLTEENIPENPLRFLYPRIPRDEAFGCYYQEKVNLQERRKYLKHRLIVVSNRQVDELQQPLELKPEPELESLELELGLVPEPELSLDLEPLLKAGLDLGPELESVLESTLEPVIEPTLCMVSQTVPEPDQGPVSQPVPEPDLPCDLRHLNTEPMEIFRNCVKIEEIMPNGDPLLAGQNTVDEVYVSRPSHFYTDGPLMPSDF
T3 sequence (P52630 whole entry, one chain of several): as the sequence (P52630 whole entry) above

Binder: B1
binding result (STAT2 [1]): binds
binding result (STAT1): binds
binding result (STAT1/STAT2 heterodimer [2]): binds
binding result (STAT1 homodimer): binds

Binder: B2
binding result (STAT1/STAT2 heterodimer [3]): binds

Binder: B3
binding result (STAT2 [4]): binds
binding result [5]: binds
